Measured values published in patent publication US10117916B2, “Peptides and combination of peptides for use in immunotherapy against CLL and other cancers” (immatics biotechnologies GmbH, priority 2015, dated 2018).

These substances were tested against HLA-A*02:01 (Homo sapiens, UniProt P04439, D140Y/D185E/D98H/E176V/E277Q/G131W/G231S/I119V/I121R/I166T/I218V/L300P/L318F/N151K/N90K/P208A/P217A/Q86G/Q94H/R138H/R169H/T345S) (assay: MHC binding assay: UV-ligand exchange with β2m ELISA (peptide exchange yield)). Details: MHC class I binding score; binding to HLA-A*02:01 ranged by peptide exchange yield (UV-ligand exchange, β2m ELISA).
Text: Candidate peptides for T cell based therapies according to the present invention were further tested for their MHC binding capacity (affinity). The individual peptide-MHC complexes were produced by UV-ligand exchange, where a UV-sensitive peptide is cleaved upon UV-irradiation, and exchanged with the peptide of interest as analyzed. Only peptide candidates that can effectively bind and stabilize the peptide-receptive MHC molecules prevent dissociation of the MHC complexes. To determine the yield of the exchange reaction, an ELISA was performed based on the detection of the light chain (β2m) of stabilized MHC complexes. The assay was performed as generally described in Rodenko et al. (Rodenko et al., 2006).
96 well MAXISorp plates (NUNC) were coated over night with 2 ug/ml streptavidin in PBS at room temperature, washed 4× and blocked for 1 h at 37° C. in 2% BSA containing blocking buffer. Refolded HLA-A*02:01/MLA-001 monomers served as standards, covering the range of 15-500 ng/ml. Peptide-MHC monomers of the UV-exchange reaction were diluted 100 fold in blocking buffer. Samples were incubated for 1 h at 37° C., washed four times, incubated with 2 ug/ml HRP conjugated anti-β2m for 1 h at 37° C., washed again and detected with TMB solution that is stopped with […]. Absorption was measured at 450 nm. Candidate peptides that show a high exchange yield (preferably higher than 50%, most preferred higher than 75%) are generally preferred for a generation and production of antibodies or fragments thereof, and/or T cell receptors or fragments thereof, as they show sufficient avidity to the MHC molecules and prevent dissociation of the MHC complexes.
With “80 (VLIEDELEEL; listed as Homo sapiens) [compound 80]” the “Peptide Exchange” value was “″++″ (≥20% = ++)”. With “82 (GLQSGVDIGV; listed as Homo sapiens) [compound 82]” the “Peptide Exchange” value was “″+++″ (≥50 = +++)”. In the case of “83 (GQGEVLVYV; listed as Homo sapiens) [compound 83]”, the “Peptide Exchange” value is reported as “″+++″ (≥50 = +++)”. “84 (GVMDVNTAL; listed as Homo sapiens) [compound 84]” was tested, and the “Peptide Exchange” value was “″++″ (≥20% = ++)”. In the case of “85 (HLMLHTAAL; listed as Homo sapiens) [compound 85]”, the “Peptide Exchange” value is reported as “″++++″ (≥75% = ++++)”. For “87 (HQIEAVDGEEL; listed as Homo sapiens) [compound 87]”, the “Peptide Exchange” value was “″++″ (≥20% = ++)”. In the case of “88 (ILDEIGADVQA; listed as Homo sapiens) [compound 88]”, the “Peptide Exchange” value is reported as “″+++″ (≥50 = +++)”. With “89 (ILDFGTFQL; listed as Homo sapiens) [compound 89]” the “Peptide Exchange” value was “″+++″ (≥50 = +++)”. For “90 (VIADLGLIRV; listed as Homo sapiens) [compound 90]”, the “Peptide Exchange” value was “″+++″ (≥50 = +++)”. With “91 (ILDLNTYNV; listed as Homo sapiens) [compound 91]” the “Peptide Exchange” value was “″+++″ (≥50 = +++)”. With “92 (ILEPLNPLL; listed as Homo sapiens) [compound 92]” the “Peptide Exchange” value was “″+++″ (≥50 = +++)”. With “93 (ILFNTQINI; listed as Homo sapiens) [compound 93]” the “Peptide Exchange” value was “″+++″ (≥50 = +++)”. For “94 (ILFPLRFTL; listed as Homo sapiens) [compound 94]”, the “Peptide Exchange” value was “″+++″ (≥50 = +++)”. For “95 (ILGYMAHEHKV; listed as Homo sapiens) [compound 95]”, the “Peptide Exchange” value was “″++″ (≥20% = ++)”. In the case of “97 (LLFATQITL; listed as Homo sapiens) [compound 97]”, the “Peptide Exchange” value is reported as “″++″ (≥20% = ++)”. For “98 (SLIKYFLFV; listed as Homo sapiens) [compound 98]”, the “Peptide Exchange” value was “″+″ (≥10% = +)”. For “99 (ILIFHSVAL; listed as Homo sapiens) [compound 99]”, the “Peptide Exchange” value was “″+++″ (≥50 = +++)”. In the case of “103 (KLGGTPAPA; listed as Homo sapiens) [compound 103]”, the “Peptide Exchange” value is reported as “″++″ (≥20% = ++)”. For “104 (KLILLDTPLFL; listed as Homo sapiens) [compound 104]”, the “Peptide Exchange” value was “″+++″ (≥50 = +++)”. With “105 (KLMNDIADI; listed as Homo sapiens) [compound 105]” the “Peptide Exchange” value was “″++″ (≥20% = ++)”. For “106 (FMASHLDYL; listed as Homo sapiens) [compound 106]”, the “Peptide Exchange” value was “″+++″ (≥50 = +++)”. With “107 (ILYNLYDLL; listed as Homo sapiens) [compound 107]” the “Peptide Exchange” value was “″+++″ (≥50 = +++)”. With “108 (VIYTLIHYI; listed as Homo sapiens) [compound 108]” the “Peptide Exchange” value was “″+++″ (≥50 = +++)”. In the case of “109 (KLWEGLTELV; listed as Homo sapiens) [compound 109]”, the “Peptide Exchange” value is reported as “″+++″ (≥50 = +++)”. “110 (LLFDHLEPMEL; listed as Homo sapiens) [compound 110]” was tested, and the “Peptide Exchange” value was “″+++″ (≥50 = +++)”. “111 (KLWNVAAPLYL; listed as Homo sapiens) [compound 111]” was tested, and the “Peptide Exchange” value was “″+++″ (≥50 = +++)”. For “113 (KVPAEEVLVAV; listed as Homo sapiens) [compound 113]”, the “Peptide Exchange” value was “″+++″ (≥50 = +++)”. For “115 (LLFDKLYLL; listed as Homo sapiens) [compound 115]”, the “Peptide Exchange” value was “″+++″ (≥50 = +++)”. For “116 (LLIGATMQV; listed as Homo sapiens) [compound 116]”, the “Peptide Exchange” value was “″+++″ (≥50 = +++)”. With “117 (LLILENILL; listed as Homo sapiens) [compound 117]” the “Peptide Exchange” value was “″+++″ (≥50 = +++)”. With “118 (RLLILENILL; listed as Homo sapiens) [compound 118]” the “Peptide Exchange” value was “″+++″ (≥50 = +++)”. “119 (VLPAEFFEV; listed as Homo sapiens) [compound 119]” was tested, and the “Peptide Exchange” value was “″+++″ (≥50 = +++)”. With “120 (AIDAALTSV; listed as Homo sapiens) [compound 120]” the “Peptide Exchange” value was “″+++″ (≥50 = +++)”. “121 (RLYEITIEV; listed as Homo sapiens) [compound 121]” was tested, and the “Peptide Exchange” value was “″++++″ (≥75% = ++++)”. In the case of “122 (LLIPVVPGV; listed as Homo sapiens) [compound 122]”, the “Peptide Exchange” value is reported as “″+++″ (≥50 = +++)”. With “123 (LLLAEAELLTL; listed as Homo sapiens) [compound 123]” the “Peptide Exchange” value was “″++″ (≥20% = ++)”. With “124 (LLLEETEKQAV; listed as Homo sapiens) [compound 124]” the “Peptide Exchange” value was “″+++″ (≥50 = +++)”. “125 (LLLEIGEVGKLFV; listed as Homo sapiens) [compound 125]” was tested, and the “Peptide Exchange” value was “″+++″ (≥50 = +++)”. With “126 (LLPEGGITAI; listed as Homo sapiens) [compound 126]” the “Peptide Exchange” value was “″+++″ (≥50 = +++)”. With “127 (LLPTAPTTV; listed as Homo sapiens) [compound 127]” the “Peptide Exchange” value was “″+++″ (≥50 = +++)”. With “128 (LLSEEEYHL; listed as Homo sapiens) [compound 128]” the “Peptide Exchange” value was “″+++″ (≥50 = +++)”. With “130 (LLVLIPVYL; listed as Homo sapiens) [compound 130]” the “Peptide Exchange” value was “″+″ (≥10% = +)”. For “131 (LQALEVLKI; listed as Homo sapiens) [compound 131]”, the “Peptide Exchange” value was “″+″ (≥10% = +)”. For “132 (LVYEAIIMV; listed as Homo sapiens) [compound 132]”, the “Peptide Exchange” value was “″+++″ (≥50 = +++)”. For “133 (YLLSGDISEA; listed as Homo sapiens) [compound 133]”, the “Peptide Exchange” value was “″+++″ (≥50 = +++)”. For “134 (MLLEHGITLV; listed as Homo sapiens) [compound 134]”, the “Peptide Exchange” value was “″++++″ (≥75% = ++++)”. “135 (MTAGFSTIAGSV; listed as Homo sapiens) [compound 135]” was tested, and the “Peptide Exchange” value was “″+″ (≥10% = +)”. In the case of “136 (NLDKLWTLV; listed as Homo sapiens) [compound 136]”, the “Peptide Exchange” value is reported as “″++″ (≥20% = ++)”. “137 (NLIKTVIKL; listed as Homo sapiens) [compound 137]” was tested, and the “Peptide Exchange” value was “″+++″ (≥50 = +++)”. In the case of “138 (NLLDIDAPVTV; listed as Homo sapiens) [compound 138]”, the “Peptide Exchange” value is reported as “″+++″ (≥50 = +++)”. In the case of “139 (NLTDVVEKL; listed as Homo sapiens) [compound 139]”, the “Peptide Exchange” value is reported as “″+++″ (≥50 = +++)”. “140 (QIAELPATSV; listed as Homo sapiens) [compound 140]” was tested, and the “Peptide Exchange” value was “″+++″ (≥50 = +++)”. In the case of “141 (QILSEIVEA; listed as Homo sapiens) [compound 141]”, the “Peptide Exchange” value is reported as “″++″ (≥20% = ++)”. In the case of “142 (QLDEPAPQV; listed as Homo sapiens) [compound 142]”, the “Peptide Exchange” value is reported as “″++″ (≥20% = ++)”. For “143 (QLLDTYFTL; listed as Homo sapiens) [compound 143]”, the “Peptide Exchange” value was “″+++″ (≥50 = +++)”. For “145 (SALDTITTV; listed as Homo sapiens) [compound 145]”, the “Peptide Exchange” value was “″+++″ (≥50 = +++)”. In the case of “146 (SIIEGPIIKL; listed as Homo sapiens) [compound 146]”, the “Peptide Exchange” value is reported as “″+++″ (≥50 = +++)”. “147 (SILETVATL; listed as Homo sapiens) [compound 147]” was tested, and the “Peptide Exchange” value was “″+++″ (≥50 = +++)”. With “148 (SIVASLITV; listed as Homo sapiens) [compound 148]” the “Peptide Exchange” value was “″+++″ (≥50 = +++)”. For “149 (SLDNGGYYI; listed as Homo sapiens) [compound 149]”, the “Peptide Exchange” value was “″+++″ (≥50 = +++)”. With “150 (SLFDQPLSII; listed as Homo sapiens) [compound 150]” the “Peptide Exchange” value was “″+++″ (≥50 = +++)”. With “151 (SLFDSAYGA; listed as Homo sapiens) [compound 151]” the “Peptide Exchange” value was “″+++″ (≥50 = +++)”. With “152 (SLIRILQTI; listed as Homo sapiens) [compound 152]” the “Peptide Exchange” value was “″+++″ (≥50 = +++)”. In the case of “153 (SLLAELHVL; listed as Homo sapiens) [compound 153]”, the “Peptide Exchange” value is reported as “″+++″ (≥50 = +++)”. “155 (SLMLEVPAL; listed as Homo sapiens) [compound 155]” was tested, and the “Peptide Exchange” value was “″+++″ (≥50 = +++)”.
